B1: Membrane protein (Human SARS coronavirus), P59596 (parent)
chain: MADNGTITVEELKQLLEQWNLVIGFLFLAWIMLLQFAYSNRNRFLYIIKLVFLWLLWPVTLACFVLAAVYRINWVTGGIAIAMACIVGLMWLSYFVASFRLFARTRSMWSFNPETNILLNVPLRGTIVTRPLMESELVIGAVIIRGHLRMAGHSLGRCDIKDLPKEITVATSRTLSYYKLGASQRVGTDSGFAAYNRYRIGNYKLNTDHAGSNDNIALLVQ

Variants of: B1
Conditions: with ncap_sars N

**Q.** With L218A;L219A as the variant, how does the “effect of a mutation on the interaction” value read?
**A.** with no effect

Source: IntAct's records for PubMed 16343974
